Laboratory results taken from US20030004318A1.

Legend:
[1] = target: tumor-associated glycoprotein TAG-72 (human); assay: ELISA on TAG-72-coated plates (FIGS. 7 and 8)
[2] = target: tumor-associated glycoprotein TAG-72 (human); assay: TAG-72-coated plate assay with 125I goat anti-human IgG probe, Scatchard analysis; mean of 8 analyses

“humanized CC49 antibody CC49 HuVH/HuVK (ATCC CRL-12209)” was tested. Which fold less binding than the chimeric MuVH/MuVK antibody [1] did it give?
Its fold less binding than the chimeric MuVH/MuVK antibody is 2 fold.

What about the Ka [2] of the same substance?
Its Ka is 4.27e+09 M⁻¹.
